Results reported in US10946092 (BEIJING MABWORKS BIOTECH, dated 2021).
Residue numbers refer to the chain shown, from its start. Names and notes keep the numbering of the source. Where two headings read alike, the source gives them in different places.

T1: recombinant human LAG3(ECD)-his (Sino Biological, Cat #: 16498-H08H) (human, UniProt P18627 23-450)
T1 construct: extracellular domain; Bought protein; not shown: his tag
T1 sequence (looked up): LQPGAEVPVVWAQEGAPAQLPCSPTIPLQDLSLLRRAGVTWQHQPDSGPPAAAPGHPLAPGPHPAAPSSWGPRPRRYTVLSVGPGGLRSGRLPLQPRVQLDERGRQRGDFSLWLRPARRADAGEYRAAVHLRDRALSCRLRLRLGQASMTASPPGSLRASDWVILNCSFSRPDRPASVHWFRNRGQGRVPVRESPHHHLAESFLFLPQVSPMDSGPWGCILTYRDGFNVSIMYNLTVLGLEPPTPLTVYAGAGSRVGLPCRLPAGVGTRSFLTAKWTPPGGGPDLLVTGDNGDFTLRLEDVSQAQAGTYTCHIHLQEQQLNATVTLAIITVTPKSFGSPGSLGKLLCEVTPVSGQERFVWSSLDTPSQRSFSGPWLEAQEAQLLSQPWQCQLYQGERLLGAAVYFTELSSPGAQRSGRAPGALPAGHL

T2: Human PBMC
T2 chain: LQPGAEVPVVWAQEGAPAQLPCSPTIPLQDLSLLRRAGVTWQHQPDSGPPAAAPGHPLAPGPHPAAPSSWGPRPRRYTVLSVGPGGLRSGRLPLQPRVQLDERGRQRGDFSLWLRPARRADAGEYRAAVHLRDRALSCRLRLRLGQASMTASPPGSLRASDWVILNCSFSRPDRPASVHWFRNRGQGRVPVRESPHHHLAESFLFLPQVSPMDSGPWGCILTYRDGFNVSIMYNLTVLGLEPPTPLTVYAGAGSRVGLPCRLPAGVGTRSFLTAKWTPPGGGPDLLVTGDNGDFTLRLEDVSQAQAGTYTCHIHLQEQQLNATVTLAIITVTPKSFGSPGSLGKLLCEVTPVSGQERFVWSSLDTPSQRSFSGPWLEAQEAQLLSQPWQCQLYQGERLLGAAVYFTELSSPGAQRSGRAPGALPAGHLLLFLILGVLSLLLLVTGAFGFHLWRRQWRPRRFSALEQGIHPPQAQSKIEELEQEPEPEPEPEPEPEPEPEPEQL

T3: hLAG-3-hIg fusion protein (human LAG-3 extracellular domain fused to human Fc); Sino Biological, Cat #: … (human, UniProt P18627 23-450)
T3 construct: extracellular domain; Bought protein; also called LAG3 fusion protein; human LAG3(ECD)-hFc; not shown: human Fc
T3 sequence (looked up): T1 sequence (looked up)

T4: human LAG3 expressed on HEK293A cells (human, UniProt P18627 23-525)
T4 construct: whole, on cells; also called HEK293A/human LAG3
T4 sequence (looked up): T2 chain

T5: monkey (rhesus) LAG3 expressed on HEK293A cells (monkey (rhesus), UniProt A0A5F8A874 23-533)
T5 construct: whole, on cells; also called HEK293A/rh LAG3
T5 sequence: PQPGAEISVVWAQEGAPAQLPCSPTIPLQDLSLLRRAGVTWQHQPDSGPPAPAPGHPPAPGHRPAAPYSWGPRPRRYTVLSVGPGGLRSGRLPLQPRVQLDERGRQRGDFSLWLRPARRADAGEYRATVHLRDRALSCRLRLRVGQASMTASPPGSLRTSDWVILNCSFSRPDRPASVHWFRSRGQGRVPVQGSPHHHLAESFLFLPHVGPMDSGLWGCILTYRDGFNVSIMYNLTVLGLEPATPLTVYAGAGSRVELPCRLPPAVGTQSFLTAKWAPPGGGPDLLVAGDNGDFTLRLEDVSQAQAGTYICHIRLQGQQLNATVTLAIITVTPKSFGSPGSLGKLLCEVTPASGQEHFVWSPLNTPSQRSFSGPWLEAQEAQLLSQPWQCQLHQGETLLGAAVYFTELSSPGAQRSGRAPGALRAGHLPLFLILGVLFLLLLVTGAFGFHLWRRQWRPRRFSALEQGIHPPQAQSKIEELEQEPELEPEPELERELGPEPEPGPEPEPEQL

B1: humanized antibody 101F4H2L2 (antibody, human IgG4 S228P, kappa, V domains shown)
VH: QVQLVQSGAEVKKPGASVKVSCKVSGYTFTDYEMHWVRQAPGKGLEWMGAIDPETGGIVYNQRFKGRVTLTADTSTDTAYMELSSLRSEDTAVYYCATAGWGYWGQGTTVTVSS
VL: DIQMTQSPSSLSASVGDRVTITCKASQDINSYLSWYQQKPGKAPKLLIYRANRLLDGVPSRFSGSGSGQDYTLTISSLQPEDFATYYCLQYDEFPFTFGQGTKLEIKR
notes: Human IgG4 (S228P)/kappa
B2: humanized antibody 101F4H3L3 (antibody, human IgG4 S228P, kappa, V domains shown)
VH: B1 VH with V24A, V68A, T98G
VL: B1 VL with M4I, Y36F
notes: Human IgG4 (S228P)/kappa
B3: humanized (with affinity maturation) antibody 101F4H2L2-8 (antibody, human IgG4 S228P, kappa, V domains shown)
VH: B1 VH with A99T, G102N, Y103D
VL: B1 VL with L89Q
B4: humanized antibody 101F4H3L2 (antibody, human IgG4 S228P, kappa, V domains shown)
VH: B1 VH with V24A, V68A, T98G
VL: B1 VL
notes: Human IgG4 (S228P)/kappa
B5: humanized antibody 101F4H2L3 (antibody, human IgG4 S228P, kappa, V domains shown)
VH: B1 VH
VL: B1 VL with M4I, Y36F
notes: Human IgG4 (S228P)/kappa
B6: humanized antibody 101F4H0L0 (antibody, human IgG4 S228P, kappa, V domains shown)
VH: B1 VH with L70M, A72E
VL: B1 VL with Q69T, Y71F
notes: Human IgG4 (S228P)/kappa
B7: humanized antibody 134G10H2L2 (antibody, human IgG4 S228P, kappa, V domains shown)
VH: EVQLVESGGGLVKPGGSLRLSCAASGFTFSSFGMSWVRQAPGKRLEWVSIISSGGTYTFYPDILKGRFTISRDNAKNSLYLQMNSLRAEDTAVYYCARVYSDYDGRFDYWGQGTLVTVSS
VL: DIVMTQSPSSLAVSLGERATINCKSSQSLLNSGNQKNYLAWYQQKPGQPPKLLIYGASTRESGVPDRFSGSGSGTDFTLTISSLQAEDVAVYYCQNDHSYPLTFGAGTKLEIKR
notes: Human IgG4 (S228P)/kappa
B8: humanized antibody 134G10H0L0 (antibody, human IgG4 S228P, kappa, V domains shown)
VH: B7 VH with R44G
VL: B7 VL with S9D, A106Q
notes: Human IgG4 (S228P)/kappa
B9: humanized antibody 134G10H3L3 (antibody, human IgG4 S228P, kappa, V domains shown)
VH: B7 VH with S49G
VL: B7 VL with S69T
notes: Human IgG4 (S228P)/kappa
B10: humanized antibody 134G10H2L3 (antibody, human IgG4 S228P, kappa, V domains shown)
VH: B7 VH
VL: B7 VL with S69T
notes: Human IgG4 (S228P)/kappa
B11: humanized antibody 134G10H3L2 (antibody, human IgG4 S228P, kappa, V domains shown)
VH: B7 VH with S49G
VL: B7 VL
notes: Human IgG4 (S228P)/kappa; also called 134G10H3VL2

Experiments:
[1] = target: T1, recombinant human LAG3(ECD)-his (Sino …); experiment: SPR (BIAcore 8K), human LAG3(ECD)-his coupled to chip, antibody injected, 1:1 Langmuir
Experimental: (§1) Serially diluted antibodies at concentrations ranging from 0.3 μM to 10 μM were injected into the SPR running buffer (HBS-EP buffer, pH7.4, GE Life Sciences; US; Cat #: BR-1006-69) at 30 μL/minute. The binding capacities were calculated with the RUs of blank controls subtracted. The association rate (Ka) and dissociation rate (Kd) were calculated using the one-to-one Langmuir binding model (BIA Evaluation Software, GE Life Sciences). The equilibrium dissociation constant K_D was calculated as the kd/ka ratio.

Human PBMC = target: T2, Human PBMC; experiment: FACS on activated human PBMC
Experimental: (§2) Briefly, 10^5 HEK293A cells in 50 μl PBS buffers were seeded into each well of the 96-well plates and then added with 50 μl of serially diluted anti-LAG3 antibodies (5-fold dilution, starting from 40 μg/ml). After incubated at 4° C. for 1 hour, plates were washed 3 times with PBST. Then, an APC coupled Goat Anti-Mouse IgG (BioLegend, US, Cat #: 405308) diluted 500× was added to the plates. After incubation at 4° C. for 1 hour, the plates were washed with PBS for 3 times and then cell fluorescence was monitored using a FACS machine (BD).
(§3) Further, the binding activities of the two antibodies to actived human PBMCs were investigated by FACS. Briefly, human PBMCs were collected by density gradient centrifugation and then re-suspended in the complete medium (RPMI medium+10% FBS+ human IL-2 (20 IU/ml, R&D, Cat #: 202-IL)+ Dynabeads™ Human T-Activator CD3/CD28 (Gibco, Cat #: 11132D)) at 37° C. under 5% CO_2 in a humidified incubator for 2 days to get activated T cells. The cells were then collected and tested by FACS as described in Example 6.

[2] = target: T1, recombinant human LAG3(ECD)-his (Sino …); experiment: SPR (BIAcore 8K), human LAG3(ECD)-his coupled to chip, antibody injected, 1:1 Langmuir; printed a second time as 'Ka values', read as Kd
Experimental: as §1

[3] = target: T6, monkey LAG3(ECD)-mFc protein (ACRO, Cat #: LA3-052A0) (monkey); experiment: SPR (BIAcore 8K), monkey LAG3(ECD)-mFc coupled to chip, antibody injected, 1:1 Langmuir
T6 construct: extracellular domain; Bought protein
Experimental: as §1

[4] = target: T3, hLAG-3-hIg fusion protein (human LAG-3 …); experiment: FACS blocking assay: hLAG-3-hIg preincubated with the antibody, then binding to MHC II on Daudi cells
[5] = target: T4, human LAG3 expressed on HEK293A cells; experiment: FACS on HEK293A cells expressing human LAG3
[6] = target: T1, recombinant human LAG3(ECD)-his (Sino …); experiment: ELISA on coated human LAG3(ECD)-his
Experimental: The wells were blocked with 200 µl of blocking buffer (PBS containing 1% BSA, 1% goat serum, and 0.05% Tween 20) for 2 hours at room temperature, and then 100 µl of serially diluted anti-LAG3 antibodies (starting from 40 µg/ml) were added to each well and incubated for 1 hour at RT. Plates were washed for 3 times with PBST (PBS+0.05% Tween 20), added with Goat-anti-mouse IgG-HRP (Sigma, US, Cat #: A9309-1 ml) diluted 5000×, and incubated for 1 hour at RT. Plates were developed with freshly prepared Ultra-TMB (BD, US, Cat #:555214) for 5 minutes at RT. Absorbance was read on a SpectraMaxR i3X (Molecular Devies, US) at 450 nm.
as §3

[7] = target: T5, monkey (rhesus) LAG3 expressed on …; experiment: FACS on HEK293A cells expressing rhesus LAG3
Experimental: as §2, §3

[8] = target: T4, human LAG3 expressed on HEK293A cells; experiment: FACS on HEK293A cells expressing human LAG3; remark: listed apart in the source
[9] = target: T3, hLAG-3-hIg fusion protein (human LAG-3 …); experiment: FACS blocking assay: hLAG-3-hIg preincubated with the antibody, then binding to MHC II on Daudi cells; remark: listed apart in the source

| Binder | binding result [4] | binding result [5] | binding result [8] | binding result [9] | also measured |
| --- | --- | --- | --- | --- | --- |
| B1 | – | – | – | – | Kd [1]: 414 nM; kon [1]: 960000 M⁻¹ s⁻¹; EC50 (read off the curve) (Human PBMC): ~0.1 µg/mL; koff [2]: 0.398 s⁻¹; Kd [3]: 0.488 nM |
| B2 | binds | binds | – | – | – |
| B3 | – | – | – | – | Kd [1]: 2.05 nM; kon [1]: 104000 M⁻¹ s⁻¹; EC50 (read off the curve) [6]: ~1 µg/mL; EC50 (read off the curve) [7]: ~0.8 µg/mL; EC50 (read off the curve) (Human PBMC): ~0.02 µg/mL; koff [2]: 0.000214 s⁻¹; Kd [3]: 0.98 nM |
| B4 | binds | binds | – | – | – |
| B5 | binds | binds | – | – | – |
| B6 | binds | binds | – | – | – |
| B7 | – | – | binds | binds | – |
| B8 | – | – | binds | binds | – |
| B9 | – | – | binds | binds | – |
| B10 | – | – | – | – | Kd [1]: 0.262 nM; kon [1]: 166000 M⁻¹ s⁻¹; Kd [3]: 0.000201 nM |
| B11 | – | – | binds | binds | – |
